B1: S{Beta-36}-[2-[2-[[2-[2-[2-[[2-[2-[2-[[(4S)-4-carboxy-4-(17-carboxyheptadecanoyl-amino)butanoyl]amino]ethoxy]ethoxy]acetyl]amino]ethoxy]ethoxy]acetyl]amino]-eth … (ligand)
chain: HGEGTFTSDVSSYLEEQAAREFIAWLVKGCGGAQPGAQPGAQPGAQPAHPIPDSSPLLQFGGQVRQRYLYTDDAQQTEAHLEIREDGTVGGAADQSPESLLQLKALKPGVIQILGVKTSRFLCQRPDGALYGSLHFDPEACSFRELLLEDGYNVYQSEAHGLPLHLPGQKSPHRDPAPRGPARFLPLPGLPPALPEPPGILAPQPPDVGSSDPLSLVGGSQGRSPSYES
modifications: Cys36 of the GLP-1 part (GLP-1(7-37) numbering; residue 30 of the chain) S-alkylated with substituent Chem. 7
B2: S{Beta-27}-[2-[2-[[2-[2-[2-[[2-[2-[2-[[(4S)-4-carboxy-4-(17-carboxyheptadecanoyl-amino)butanoyl]amino]ethoxy]ethoxy]acetyl]amino]ethoxy]ethoxy]acetyl]amino]-eth … (ligand)
chain: HGEGTFTSDVSSYLEEQAAKCFIAWLVKGGGGAQPGAQPGAQPGAQPAHPIPDSSPLLQFGGQVRQRYLYTDDAQQTEAHLEIREDGTVGGAADQSPESLLQLKALKPGVIQILGVKTSRFLCQRPDGALYGSLHFDPEACSFRELLLEDGYNVYQSEAHGLPLHLPGQKSPHRDPAPRGPARFLPLPGLPPALPEPPGILAPQPPDVGSSDPLSLVGPSQGRSPSYCS
modifications: Cys27 of the GLP-1 part (GLP-1(7-37) numbering; residue 21 of the chain) and Cys180 of the FGF21 part (FGF21(1-181) numbering; residue 228 of the chain) each S-alkylated with substituent Chem. 7
B3: S{Beta-26}-[2-[2-[[2-[2-[2-[[2-[2-[2-[[(4S)-4-carboxy-4-(17-carboxyheptadecanoyl-amino)butanoyl]amino]ethoxy]ethoxy]acetyl]amino]ethoxy]ethoxy]acetyl]amino]-eth … (ligand)
chain: HGEGTFTSDVSSYLEEQAACEFIAWLVKGGGGAQPGAQPGAQPGAQPAHPIPDSSPLLQFGGQVRQRYLYTDDAQQTEAHLEIREDGTVGGAADQSPESLLQLKALKPGVIQILGVKTSRFLCQRPDGALYGSLHFDPEACSFRELLLEDGYNVYQSEAHGLPLHLPGQKSPHRDPAPRGPARFLPLPGLPPALPEPPGILAPQPPDVGSSDPLSLVGPSQGRSPSYCS
modifications: Cys26 of the GLP-1 part (GLP-1(7-37) numbering; residue 20 of the chain) and Cys180 of the FGF21 part (FGF21(1-181) numbering; residue 228 of the chain) each S-alkylated with substituent Chem. 7
B4: S{Beta-27}-[2-[2-[[2-[2-[2-[[2-[2-[2-[[(4S)-4-carboxy-4-(17-carboxyheptadecanoyl-amino)butanoyl]amino]ethoxy]ethoxy]acetyl]amino]ethoxy]ethoxy]acetyl]amino]-eth … (ligand)
chain: HGEGTFTSDVSSYLEEQAAKCFIAWLVKGGGGAQPGAQPGAQPGAQPAHPIPDSSPLLQFGGQVRQRYLYTDDAQQTEAHLEIREDGTVGGAADQSPESLLQLKALKPGVIQILGVKTSRFLCQRPDGALYGSLHFDPEACSFRELLLEDGYNVYQSEAHGLPLHLPGQKSPHRDPAPRGPARFLPLPGLPPALPEPPGILAPQPPDVGSSDPLSLVGGSQGRSPSYES
modifications: Cys27 of the GLP-1 part (GLP-1(7-37) numbering; residue 21 of the chain) S-alkylated with substituent Chem. 7
B5: S{Beta-27}-[2-[2-[[2-[2-[2-[[2-[2-[2-[[(4S)-4-carboxy-4-(17-carboxyheptadecanoyl-amino)butanoyl]amino]ethoxy]ethoxy]acetyl]amino]ethoxy]ethoxy]acetyl]amino]-eth … (ligand)
chain: HGEGTFTSDVSSYLEEQAAKCFIAWLVKGGGGAQPGAQPGAQPGAQPAHPIPDSSPLLQFGGQVRQRYLYTDDAQQTEAHLEIREDGTVGGAADQSPESLLQLKALKPGVIQILGVKTSRFLCQRPDGALYGSLHFDPEACSFRELLLEDGYNVYQSEAHGLPLHLPGQKSPHRDPAPRGPARFLPLPGLPPALPEPPGILAPQPPDVGSSDPLSLVGGSQGRSPSYAS
modifications: Cys27 of the GLP-1 part (GLP-1(7-37) numbering; residue 21 of the chain) S-alkylated with substituent Chem. 7
B6: S{Beta-27}-[2-[2-[[2-[2-[2-[[2-[2-[2-[[(4S)-4-carboxy-4-(17-carboxyheptadecanoyl-amino)butanoyl]amino]ethoxy]ethoxy]acetyl]amino]ethoxy]ethoxy]acetyl]amino]-eth … (ligand)
chain: HGEGTFTSDVSSYLEEQAARCFIAWLVKGGGGAQPGAQPGAQPGAQPAHPIPDSSPLLQFGGQVRQRYLYTDDAQQTEAHLEIREDGTVGGAADQSPESLLQLKALKPGVIQILGVKTSRFLCQRPDGALYGSLHFDPEACSFRELLLEDGYNVYQSEAHGLPLHLPGQKSPHRDPAPRGPARFLPLPGLPPALPEPPGILAPQPPDVGSSDPLSLVGGSQGRSPSYES
modifications: Cys27 of the GLP-1 part (GLP-1(7-37) numbering; residue 21 of the chain) S-alkylated with substituent Chem. 7
B7: S{Beta-27}-[2-[2-[[2-[2-[2-[[2-[2-[2-[[(4S)-4-carboxy-4-(17-carboxyheptadecanoyl-amino)butanoyl]amino]ethoxy]ethoxy]acetyl]amino]ethoxy]ethoxy]acetyl]amino]-eth … (ligand)
chain: HGEGTFTSDVSSYLEEQAARCFIAWLVKGGGGAQPGAQPGAQPGAQPAHPIPDSSPLLQFGGQVRQRYLYTDDAQQTEAHLEIREDGTVGGAADQSPESLLQLKALKPGVIQILGVKTSRFLCQRPDGALYGSLHFDPEACSFRELLLEDGYNVYQSEAHGLPLHLPGQKSPHRDPAPRGPARFLPLPGLPPALPEPPGILAPQPPDVGSSDPLSLVGPSQGRSPSYCS
modifications: Cys27 of the GLP-1 part (GLP-1(7-37) numbering; residue 21 of the chain) and Cys180 of the FGF21 part (FGF21(1-181) numbering; residue 228 of the chain) each S-alkylated with substituent Chem. 7
B8: S{Beta-27}-[2-[2-[[2-[2-[2-[[2-[2-[2-[[(4S)-4-carboxy-4-(17-carboxyheptadecanoyl-amino)butanoyl]amino]ethoxy]ethoxy]acetyl]amino]ethoxy]ethoxy]acetyl]amino]-eth … (ligand)
chain: HGEGTFTSDVSSYLEEQAAKCFIAWLVKGGGGAQPGAQPGAQPGAQPGAQPGAQPGAQPGAQPAHPIPDSSPLLQFGGQVRQRYLYTDDAQQTEAHLEIREDGTVGGAADQSPESLLQLKALKPGVIQILGVKTSRFLCQRPDGALYGSLHFDPEACSFRELLLEDGYNVYQSEAHGLPLHLPGQKSPHRDPAPRGPARFLPLPGLPPALPEPPGILAPQPPDVGSSDPLSLVGGSQGRSPSYAS
modifications: Cys27 of the GLP-1 part (GLP-1(7-37) numbering; residue 21 of the chain) S-alkylated with substituent Chem. 7
B9: S{Beta-27}-[2-[2-[[2-[2-[2-[[2-[2-[2-[[(4S)-4-carboxy-4-(17-carboxyheptadecanoyl-amino)butanoyl]amino]ethoxy]ethoxy]acetyl]amino]ethoxy]ethoxy]acetyl]amino]-eth … (ligand)
chain: HGEGTFTSDVSSYLEEQAAKCFIAWLVKGGGGAQPGAQPGAQPGAQPGAQPGAQPGAQPGAQPAHPIPDSSPLLQFGGQVRQRYLYTDDAQQTEAHLEIREDGTVGGAADQSPESLLQLKALKPGVIQILGVKTSRFLCQRPDGALYGSLHFDPEACSFRELLLEDGYNVYQSEAHGLPLHLPGQKSPHRDPAPRGPARFLPLPGLPPALPEPPGILAPQPPDVGSSDPLSLVGGSQGRSPSYES
modifications: Cys27 of the GLP-1 part (GLP-1(7-37) numbering; residue 21 of the chain) S-alkylated with substituent Chem. 7
B10: S{Beta-27}-[2-[2-[[2-[2-[2-[[2-[2-[2-[[(4S)-4-carboxy-4-(17-carboxyheptadecanoyl-amino)butanoyl]amino]ethoxy]ethoxy]acetyl]amino]ethoxy]ethoxy]acetyl]amino]-eth … (ligand)
chain: HGEGTFTSDVSSYLEEQAAKCFIAWLVKGGGGAQPGAQPGAQPGAQPGAQPGAQPGAQPGAQPGAQPGAQPGAQPGAQPGAQPGAQPGAQPGAQPAHPIPDSSPLLQFGGQVRQRYLYTDDAQQTEAHLEIREDGTVGGAADQSPESLLQLKALKPGVIQILGVKTSRFLCQRPDGALYGSLHFDPEACSFRELLLEDGYNVYQSEAHGLPLHLPGQKSPHRDPAPRGPARFLPLPGLPPALPEPPGILAPQPPDVGSSDPLSLVGGSQGRSPSYES
modifications: Cys27 of the GLP-1 part (GLP-1(7-37) numbering; residue 21 of the chain) S-alkylated with substituent Chem. 7
B11: [8G, 22E, 26R, 36G]GLP-1(7-37)-(GAQP)x2, … (ligand)
chain: HGEGTFTSDVSSYLEEQAAREFIAWLVKGGGGAQPGAQPCGAQPAHPIPDSSPLLQFGGQVRQRYLYTDDAQQTEAHLEIREDGTVGGAADQSPESLLQLKALKPGVIQILGVKTSRFLCQRPDGALYGSLHFDPEACSFRELLLEDGYNVYQSEAHGLPLHLPGQKSPHRDPAPRGPARFLPLPGLPPALPEPPGILAPQPPDVGSSDPLSLVGGSQGRSPSYAS
modifications: Cys of the spacer (residue 40 of the chain) S-alkylated with substituent Chem. 7
B12: [8G, 22E, 26R, 36G]GLP-1(7-37)-(GAQP)x2, … (ligand)
chain: HGEGTFTSDVSSYLEEQAAREFIAWLVKGGGGAQPGAQPCGAQPGAQPAHPIPDSSPLLQFGGQVRQRYLYTDDAQQTEAHLEIREDGTVGGAADQSPESLLQLKALKPGVIQILGVKTSRFLCQRPDGALYGSLHFDPEACSFRELLLEDGYNVYQSEAHGLPLHLPGQKSPHRDPAPRGPARFLPLPGLPPALPEPPGILAPQPPDVGSSDPLSLVGPSQGRSPSYCSHGEGTFTSDVSSYLEEQAAREFIAWLVKGGGGAQPGAQPCGAQPGAQPAHPIPDSSPLLQFGGQVRQRYLYTDDAQQTEAHLEIREDGTVGGAADQSPESLLQLKALKPGVIQILGVKTSRFLCQRPDGALYGSLHFDPEACSFRELLLEDGYNVYQSEAHGLPLHLPGQKSPHRDPAPRGPARFLPLPGLPPALPEPPGILAPQPPDVGSSDPLSLVGPSQGRSPSYCS
modifications: Cys of the spacer (residue 40 of the chain) and Cys180 of the FGF21 part (FGF21(1-181) numbering; residue 229 of the chain) each S-alkylated with substituent Chem. 7
B13: {S27-[(28S)-(28,46-Dicarboxy-2,7,16,25,30-pentaoxo-9,12,18,21-tetraoxa-3,6,15,24,29-pentaazahexatetracontan-1-yl)]-[Gly8,36,Glu22,Cys27]-GLP-1(human)-(7-37)-pep … (ligand)
chain: HGEGTFTSDVSSYLEEQAAKCFIAWLVKGGGGAQPGAQPGAQPGAQPGAQPGAQPGAQPGAQPGAQPGAQPGAQPGAQPGAQPGAQPGAQPGAQPGAQPGAQPGAQPGAQPGAQPGAQPGAQPGAQPGAQPGAQPGAQPGAQPGAQPGAQPGAQPGAQPAHPIPDSSPLLQFGGQVRQRYLYTDDAQQTEAHLEIREDGTVGGAADQSPESLLQLKALKPGVIQILGVKTSRFLCQRPDGALYGSLHFDPEACSFRELLLEDGYNVYQSEAHGLPLHLPGQKSPHRDPAPRGPARFLPLPGLPPALPEPPGILAPQPPDVGSSDPLSLVGGSQGRSPSYES
modifications: Cys27 of the GLP-1 part (GLP-1(7-37) numbering; residue 21 of the chain) S-alkylated with (28S)-(28,46-Dicarboxy-2,7,16,25,30-pentaoxo-9,12,18,21-tetraoxa-3,6,15,24,29-pentaazahexatetracontan-1-yl) (substituent Chem. 7)
B14: [8G, 22E, 36G]GLP-1(7-37)-(GAQP)x2, … (ligand)
chain: HGEGTFTSDVSSYLEEQAAKEFIAWLVKGGGGAQPGAQPCGAQPGAQPAHPIPDSSPLLQFGGQVRQRYLYTDDAQQTEAHLEIREDGTVGGAADQSPESLLQLKALKPGVIQILGVKTSRFLCQRPDGALYGSLHFDPEACSFRELLLEDGYNVYQSEAHGLPLHLPGQKSPHRDPAPRGPARFLPLPGLPPALPEPPGILAPQPPDVGSSDPLSLVGGSQGRSPSYAS
modifications: Cys of the spacer (residue 40 of the chain) S-alkylated with substituent Chem. 7

Columns and labels:
Test in all cases: cell-based or functional assay
[1] = target: T1, human GLP-1 receptor (human, UniProt P43220 24-463)
[2] = target: FGF receptor/BKL complex (human, UniProt Q86Z14 1-1044)
[3] = target: T1, human GLP-1 receptor; remark: listed apart in the source

FGF receptor/BKL complex, sequence (Q86Z14 whole entry, one chain of several): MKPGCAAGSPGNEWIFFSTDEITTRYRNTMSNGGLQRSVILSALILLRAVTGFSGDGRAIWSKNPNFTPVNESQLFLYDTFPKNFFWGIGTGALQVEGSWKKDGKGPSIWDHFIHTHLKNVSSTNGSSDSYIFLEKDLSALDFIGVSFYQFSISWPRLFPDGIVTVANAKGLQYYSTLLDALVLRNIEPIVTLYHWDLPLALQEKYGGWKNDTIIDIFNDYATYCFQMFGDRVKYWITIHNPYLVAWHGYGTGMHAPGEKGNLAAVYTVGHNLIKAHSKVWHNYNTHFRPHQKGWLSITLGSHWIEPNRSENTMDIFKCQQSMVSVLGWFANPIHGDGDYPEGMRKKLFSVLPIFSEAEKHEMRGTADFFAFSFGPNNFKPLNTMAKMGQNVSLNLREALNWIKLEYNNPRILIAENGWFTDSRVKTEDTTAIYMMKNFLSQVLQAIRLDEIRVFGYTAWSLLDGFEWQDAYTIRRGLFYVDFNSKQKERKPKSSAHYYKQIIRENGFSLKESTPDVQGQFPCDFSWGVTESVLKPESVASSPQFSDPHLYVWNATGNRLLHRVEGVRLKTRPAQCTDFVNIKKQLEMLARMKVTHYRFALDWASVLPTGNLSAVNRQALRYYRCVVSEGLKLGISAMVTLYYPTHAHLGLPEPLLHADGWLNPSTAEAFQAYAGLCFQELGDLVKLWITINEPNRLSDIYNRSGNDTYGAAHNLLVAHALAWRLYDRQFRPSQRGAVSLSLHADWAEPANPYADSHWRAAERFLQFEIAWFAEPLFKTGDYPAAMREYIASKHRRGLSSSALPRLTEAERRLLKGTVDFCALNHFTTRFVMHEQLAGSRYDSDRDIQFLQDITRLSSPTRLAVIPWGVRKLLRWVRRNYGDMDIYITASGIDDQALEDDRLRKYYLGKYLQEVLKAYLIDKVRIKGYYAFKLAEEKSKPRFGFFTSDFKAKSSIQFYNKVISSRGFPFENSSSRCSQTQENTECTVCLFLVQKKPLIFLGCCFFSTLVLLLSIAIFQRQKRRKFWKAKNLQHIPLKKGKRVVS

GLP-1 receptor potency [EC50] pM 0% HSA [1] [pM]	GLP-1 receptor potency [EC50] pM 1% HSA [1] [pM]	FGF1 receptor potency [EC50] nM 0.1% HSA [2] [nM]	FGF21 receptor potency [EC50] nM 0% HSA [2] [nM]	GLP-1R potency loss against Chem. 24, absence of HSA [3] [fold]	GLP-1R potency loss against Chem. 24, presence of HSA [3] [fold]	Binder
54.6	394	0.73	0.41			B1
18	391	7.57	0.2			B2
224	4410	8.97	0.24	40	26	B3
13.8	78.7	0.64	0.45			B4
16.9	75.4	0.38	0.13			B5
17.2	104	0.43	0.17			B6
11.4	389	8	1.2			B7
15.7	106	0.45	0.24			B8
9.8	66.6	0.87	0.41			B9
9.5	103	1.14	0.47			B10
28.2	222	0.57	0.32			B11
29.5	450	18	0.22			B12
9.8	203	1.42	0.67			B13
92.3	394	1.36	0.19			B14
